Legend:
[1] = biological target: Bovine serum albumin (BSA) (Bos taurus, UniProt P02769 P02769:25-607)
[2] = biological target: SARS-CoV-2 WT spike S2 domain (SARS-CoV-2, UniProt P0DTC2 P0DTC2:686-1213)
[3] = biological target: SARS-CoV-2 WT spike S1S2 extracellular domain (SARS-CoV-2, UniProt P0DTC2)
SARS-CoV-2 WT spike S1 = SARS-CoV-2 WT spike S1 (SARS-CoV-2, UniProt P0DTC2 P0DTC2:14-685)
PD-L1 = PD-L1 (UniProt Q9NZQ7 Q9NZQ7:19-238)
Lysozyme = Lysozyme (UniProt P00698 P00698:19-147)
Lysozyme, sequence (P00698 19-147, one chain of several): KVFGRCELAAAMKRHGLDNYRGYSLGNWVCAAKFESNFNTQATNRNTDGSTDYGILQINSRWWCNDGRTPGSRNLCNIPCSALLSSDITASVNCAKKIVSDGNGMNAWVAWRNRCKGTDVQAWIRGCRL

Bovine serum albumin (BSA), sequence (P02769 25-607, one chain of several): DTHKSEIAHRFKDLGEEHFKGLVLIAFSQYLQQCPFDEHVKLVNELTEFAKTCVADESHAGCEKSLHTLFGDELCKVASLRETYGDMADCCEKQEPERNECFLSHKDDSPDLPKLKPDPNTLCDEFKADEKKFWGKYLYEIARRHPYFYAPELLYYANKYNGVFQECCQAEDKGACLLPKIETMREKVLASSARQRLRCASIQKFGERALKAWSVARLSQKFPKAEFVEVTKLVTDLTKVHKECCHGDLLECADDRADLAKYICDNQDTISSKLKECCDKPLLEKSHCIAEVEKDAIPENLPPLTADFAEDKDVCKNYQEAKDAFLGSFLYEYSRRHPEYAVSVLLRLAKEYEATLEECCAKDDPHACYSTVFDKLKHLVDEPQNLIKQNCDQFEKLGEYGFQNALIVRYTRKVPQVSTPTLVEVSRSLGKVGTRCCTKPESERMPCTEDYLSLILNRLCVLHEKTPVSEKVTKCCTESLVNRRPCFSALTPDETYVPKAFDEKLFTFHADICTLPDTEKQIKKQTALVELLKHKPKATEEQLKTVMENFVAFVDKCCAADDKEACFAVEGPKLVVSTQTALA
PD-L1, sequence (Q9NZQ7 19-238, one chain of several): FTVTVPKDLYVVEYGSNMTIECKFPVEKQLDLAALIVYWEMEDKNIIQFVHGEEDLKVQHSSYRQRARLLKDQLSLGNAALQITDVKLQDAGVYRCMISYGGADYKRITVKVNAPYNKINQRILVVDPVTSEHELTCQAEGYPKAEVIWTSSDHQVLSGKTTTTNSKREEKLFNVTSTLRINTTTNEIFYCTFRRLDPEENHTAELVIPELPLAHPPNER

| Binder | binding result [1] | binding result [2] | binding result [3] | other results |
| --- | --- | --- | --- | --- |
| A1C1 (ssDNA) DNA: CGGGACGACGACGGACATCGTGAGAAATGGTCGACCTTGTGTCTGTCGTCCCG | no binding | – | – | – |
| S2A1C1 (ssDNA) DNA: CAAGGAGCGACCAGAGGGGCGGTTTATCAACAACTCGCTCTGTACACCACTCTTTG | – | binds | – | – |
| CAAGGAGCGACCAGAGGCGGGTTCCTAGACTTGTACTCAGCCT (ssDNA) [S2A2C3] | – | binds | – | – |
| S2A2 (ssDNA) DNA: CAAGGAGCGACCAGAGGCGGGTTCCTAGACTTGTACTCAGCCTTTACAGCTATGCCCTGGCATCCTTCAGCCC | – | – | binds | – |
| AGGCGGGTTCCTAGACTTGTACTCAGCCT (ssDNA) [S2A2C1] | no binding | – | – | binding result (SARS-CoV-2 WT spike S1): no binding; binding result (PD-L1): no binding; binding result (Lysozyme): no binding |
| S2A1 (ssDNA) DNA: CAAGGAGCGACCAGAGGGGCGGTTTATCAACAACTCGCTCTGTACACCACTCTTTGTTGGCATCCTTCAGCCC | – | – | binds | – |

— US20250340890, “DNA […] AS UNIVERSAL INHIBITORS OF SPIKE PROTEIN/HACE2 INTERACTIONS” (Bowling Green State University, published 2025)
